Data on four molecules can be found in publication PMC10127613 (mBio, 2023).

In data set [1] the target is Sinorhizobium meliloti Clr, C-terminally His6-tagged (Sinorhizobium meliloti). Kind of data set: SEC; apo-Clr in solution (no cNMP, no DNA); dimer to monomers. A general note: Size exclusion chromatography separates by hydrodynamic size, large species first.
For data set [2] the target is unchanged. Description: crystal structure; Clr (0.25 or 0.44 mM) with 25 mM cAMP or cGMP, 25 mM MgCl2 and 1.25-fold excess of 19-mer/14-mer duplex CBS-DNA; sitting-drop vapor diffusion, 291 K (cAMP) or 281 K (cGMP).
Data set [3] has as its target T1, Clr (Sinorhizobium meliloti, UniProt Q92SD2).
T1 construct: gene SMc02175
Description: isothermal titration calorimetry. The data set is classed as binding. A general note: ITC needs no label: the signal is the heat of the interaction.

Data set [4] addresses T2, Clr (Sinorhizobium meliloti, UniProt Q92SD2 1-234).
T2 sequence: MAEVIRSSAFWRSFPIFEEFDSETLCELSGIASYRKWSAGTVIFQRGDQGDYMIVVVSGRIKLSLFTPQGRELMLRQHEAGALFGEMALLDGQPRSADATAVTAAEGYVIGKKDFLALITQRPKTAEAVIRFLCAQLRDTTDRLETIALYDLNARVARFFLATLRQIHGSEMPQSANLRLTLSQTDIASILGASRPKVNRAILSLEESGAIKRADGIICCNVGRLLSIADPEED
Description: ITC; 1 mM cAMP; EMSA: 2 mM HEPES pH 7.0, 30 mM NaCl, 50 mM KCl, 850 ng salmon sperm DNA, 1 ug BSA, 20 ng Cy3-DNA, 3 ug Clr in 10 uL, 1 mM cAMP, room temperature. ITC: 20 mM HEPES, 300 mM NaCl, 20 mM MgCl2, pH 7.0, 25 C. To be noted: protein: recombinant; tags: C-terminal His6 (pET36b, NdeI/XhoI); chain copies: 2; two copies of each strand; duplex arms joined by palindromic 5' overhang CTAG (4 nt) of the 19-mer, 1 nt 3' overhang G; nicked.

The term stoichiometry N denotes a count of units in the complex or per binding partner. One may read the Kd as the concentration at which binding is half-saturated.

In data set [1], “Sinorhizobium meliloti Clr, C-terminally His6-tagged” registered a percent in the monomeric state of 86% and a stoichiometry N of 2. In the case of “Sinorhizobium meliloti Clr, C-terminally His6-tagged (natural protein)”, the stoichiometry N in data set [2] was 2. Molecule `Nc1nc2c(ncn2[C@@H]2O[C@@H]3COP(=O)(O)O[C@H]3[C@H]2O)c(=O)[nH]1` [cGMP] had a dissociation constant (Kd) at Clr [3] of 23.8 ± 14.5 µM.

B1: CBS-DNA, two identical 19-mer/14-mer duplexes joined by palindromic CTAG sticky ends (nicked 33-nt) (dsDNA)
DNA 1: CTAGGTAACATTACTCGCG
DNA 2: GCGAGTAATGTTAC
DNA 3: CTAGGTAACATTACTCGCG
DNA 4: GCGAGTAATGTTAC
With B1, the Kd in the data set with Clr [4] was 6 ± 4.7 µM.
